# From the supplement of paper PMC7877785
# ± gives the uncertainty stated by the source.
# Test: self-splicing fitness, log relative to wild type (ln ratio); higher = more splicing; Tetrahymena group I intron in knt gene, E. coli kanamycin selection, DiMSum; sequences stand for … in CUCUCU…GGAGGGAAAAGUUAUCAGGCAUGCACCUGGUAGCUAGUCUUUAAACCAAUAGAUUGCAUCGGUUUAAAAGGCAAGACCGUCAAAUUGCGGGAAAGGGGUCAACAGCCGUUCAGUACCAAGUCUCAGGGGAAACUUUGAGAUGGCCUUGCAAAGGGUAUGGUAAUAAGCUGACGGACAUGGUCCUAACCACGCAGCCAAGUCCUAAGUCAACAGAUCUUCUGUUGAUAUGGAUGCAGUUCACAGACUAAAUGUCGGUCGGGGAAGAUGUAUUCUUCUCAUAAGAUAUAGUCGGACCUCUCCUUAAUGGGAGCUAGCGGAUGAAGUGAUGCAACACUGGAGCCGCUGGGAACUAAUUUGUAUGCGAAAGUAUAUUGAUUAGUUUUGGAGUACUCGUGGUCG
# In short: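 The eight P1ex-region nucleotides of an intron in the knt kanamycin-resistance gene on pET-22b(+) were all randomised and the library put into E. coli BL21(DE3). Six replicate transformations were grown overnight at 37°C or 30°C on LB agar with or without 25 μg/mL kanamycin, together with 100 μg/mL carbenicillin, 50 μM IPTG and 0.2% rhamnose. Colonies were pooled and amplicon-sequenced on an Illumina HiSeq 2500. Fitness from DiMSum is the error-weighted combination of wild-type-normalised replicate fold changes, kanamycin over none.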
Sequence,self-splicing fitness (ln) (30 °C),self-splicing fitness (ln) (37 °C)
CGCUAGCAAUAUUACGAACC,-2.92 ± 0.2,-0.219 ± 0.16
CGCUAGCAAUAUUACGACAA,-2.04 ± 0.18,-1.83 ± 0.2
CGCUAGCAAUAUUACGACAU,-3.31 ± 0.022,-2.06 ± 0.036
CGCUAGCAAUAUUACGACCC,-0.616 ± 0.16,-0.956 ± 0.45
CGCUAGCAAUAUUACGACGG,-0.226 ± 0.11,0.553 ± 0.14
CGCUAGCAAUAUUACGACUC,-1.4 ± 0.1,-1.61 ± 0.15
CGCUAGCAAUAUUACGAGAC,-3.36 ± 0.12,-2.45 ± 0.13
CGCUAGCAAUAUUACGAGUU,-2.49 ± 0.1,-2.38 ± 0.15
CGCUAGCAAUAUUACGAUAA,-4.27 ± 0.36,-2.35 ± 0.32
CGCUAGCAAUAUUACGCAAA,,-3.01 ± 0.47
CGCUAGCAAUAUUACGCACA,-1.37 ± 0.13,-0.405 ± 0.1
CGCUAGCAAUAUUACGCCAG,-3.09 ± 0.15,-2.81 ± 0.29
CGCUAGCAAUAUUACGCGCC,-2.52 ± 0.19,-2.24 ± 0.35
CGCUAGCAAUAUUACGCGGG,-4.55 ± 0.26,-2.08 ± 0.16
CGCUAGCAAUAUUACGCUUC,-2.39 ± 0.28,-2.39 ± 0.39
CGCUAGCAAUAUUACGGACA,-0.438 ± 0.14,-0.65 ± 0.13
CGCUAGCAAUAUUACGGAGC,-2.64 ± 0.2,-1.84 ± 0.24
CGCUAGCAAUAUUACGGCGG,-1.68 ± 0.089,-0.662 ± 0.11
CGCUAGCAAUAUUACGGCUG,-1.13 ± 0.12,-0.227 ± 0.14
CGCUAGCAAUAUUACGGGCG,-2.95 ± 0.28,-2.74 ± 0.44
CGCUAGCAAUAUUACGUAAA,-2.46 ± 0.2,-1.33 ± 0.31
CGCUAGCAAUAUUACGUCAG,-1.4 ± 0.12,-0.542 ± 0.14
CGCUAGCAAUAUUACGUGCU,-1.82 ± 0.16,-1.63 ± 0.18
CGCUAGCAAUAUUACGUGGU,-3.55 ± 0.27,-2.61 ± 0.26

Sequence,self-splicing fitness (ln) (30 °C),self-splicing fitness (ln) (37 °C)
CGCUAGCAAUAUUACGUUAU,-4.99 ± 0.32,-3.36 ± 0.26
CGCUAGCAAUAUUACGUUCC,-2.83 ± 0.15,-2.81 ± 0.31
CGGAAGCAAUAUUACGAAAG,-0.838 ± 0.12,-0.911 ± 0.19
CGGAAGCAAUAUUACGAAGG,-1.17 ± 0.11,-0.983 ± 0.18
CGGAAGCAAUAUUACGAAUC,-3.29 ± 0.3,-2.46 ± 0.29
CGGAAGCAAUAUUACGACAC,,-1.66 ± 0.38
CGGAAGCAAUAUUACGAGCA,-2.83 ± 0.24,-1.82 ± 0.18
CGGAAGCAAUAUUACGAGUC,-2.83 ± 0.22,-2.39 ± 0.31
CGGAAGCAAUAUUACGAUCC,-3.21 ± 0.37,-1.42 ± 0.23
CGGAAGCAAUAUUACGCCCA,-0.0821 ± 0.13,0.194 ± 0.2
CGGAAGCAAUAUUACGCCCU,-0.363 ± 0.13,0.204 ± 0.15
CGGAAGCAAUAUUACGCCGU,-2.88 ± 0.44,-1.91 ± 0.28
CGGAAGCAAUAUUACGCUAA,-2.74 ± 0.17,-3.01 ± 0.29
CGGAAGCAAUAUUACGCUUG,,-2.42 ± 0.27
CGGAAGCAAUAUUACGCUUU,-2.02 ± 0.18,-3.26 ± 0.33
CGGAAGCAAUAUUACGGACA,0.389 ± 0.13,-0.329 ± 0.15
CGGAAGCAAUAUUACGGCCC,0.0304 ± 0.18,0.0512 ± 0.23
CGGAAGCAAUAUUACGGGGC,-2.49 ± 0.19,-2.71 ± 0.26
CGGAAGCAAUAUUACGUACA,-0.615 ± 0.13,-0.219 ± 0.15
CGGAAGCAAUAUUACGUACG,-3.87 ± 0.24,-2.26 ± 0.21
CGGAAGCAAUAUUACGUAGG,-0.48 ± 0.078,-1.38 ± 0.12
CGGAAGCAAUAUUACGUAUA,-2.82 ± 0.24,-2.63 ± 0.3
CGGAAGCAAUAUUACGUCAG,-1.33 ± 0.13,-0.154 ± 0.17
CGGAAGCAAUAUUACGUCCA,-0.281 ± 0.097,0.585 ± 0.13
